Measured values: patent publication US9730926B2, “Combination therapy using bispecific anti-c-Met/anti-EGFR antibody and c-Src inhibitor” (Samsung Electronics Co., Ltd., priority 2014, dated 2017)

Columns and labels:
[1] = system: EGFR T790M mutated non-small cell lung cancer cell line (H1975); settings: FIGS. 17 to 19; for cell proliferation, co-treatment with bispecific antibody compared to c-Src inhibitor alone: c-Src inhibitor 10, 100, 1000 nM + 5 μg/ml ME22S, HGF and EGF 100 ng/ml, 72 hours; for dose dependence of the synergistic effect by co-treatment with bispecific antibody: c-Src inhibitor concentration varied, ME22S 5 μg/ml
Procedure: (§1) The cells were stored in RPMI1640 medium (GIBCO) containing 10%(v/v) FBS under the conditions of 5% CO2 and 37° C., until being used in the following experiments. A cell proliferation assay was performed as follows.
(§2) In detail, RPMI1640 medium (GIBCO) containing 10% FBS was added to 96-well plate.
(§3) At 72 hours after the treatment, 10 μL of Cell Counting Kit-8 solution (Dojindo Molecular Technologies, Gaithersburg, Md.) was added to each well, and left at room temperature for 2 hours.

[2] = system: K-Ras mutated colorectal cancer cell line (HCT-116 cell line); assay: Cell proliferation assay (Cell Counting Kit-8), HCT-116 cell line; format: cell-based; settings: for cell proliferation, co-treatment with ME22S compared to c-Src inhibitor alone: dasatinib 10-1000 nM or saracatinib 10-10000 nM + 5 μg/ml ME22S
Procedure: as §1
RPMI1640 medium (GIBCO) containing 10% FBS was added to 96-well plate.
as §3, §2

[3] = system: K-Ras mutated colorectal cancer cell line (Lovo cell line); assay: Cell proliferation assay (Cell Counting Kit-8), Lovo cell line; format: cell-based; settings: for cell proliferation, co-treatment with ME22S compared to c-Src inhibitor alone: c-Src inhibitor 10, 100, 1000 nM + 5 μg/ml ME22S
[4] = system: K-Ras mutated colorectal cancer cell line (Lovo cell line); assay: as above; format: cell-based; settings: FIG. 4, FIG. 5
Procedure: To examine the cell proliferation inhibition effect depending on the amount of a bispecific anti-c-Met/anti-EGFR antibody, the experiment was carried out by varying the amount of the treated bispecific anti-c-Met/anti-EGFR antibody with fixing the amount of dasatini as 30 nM.
This experiment was conducted referring to the experiment of the cell proliferation test depending on the amount of the antibody as described above, except the amount of the treated antibody and the c-Src inhibitor.

[5] = system: EGFR T790M mutated non-small cell lung cancer cell line (H820 cell line); assay: Cell proliferation assay (Cell Counting Kit-8), H820 cell line; format: cell-based
Excerpt: The H820 cell line was obtained from ATCC. The H820 cells comprise EGFR T790M mutation.

[6] = 5 μg/ml alone, HGF and EGF 100 ng/ml, 72 hours

COc1cc(Nc2c(C#N)cnc3cc(OCCCN4CCN(C)CC4)c(OC)cc23)c(Cl)cc1Cl [bosutinib, 4-[(2,4-dichloro-5-methoxyphenyl)amino]-6-methoxy-7-[3-(4-methylpiperazin-1-yl)propoxy]quinoline-3-carbonitrile]
cell proliferation, co-treatment with bispecific antibody compared to c-Src inhibitor alone [1]: significantly synergistic therapeutic effect | dose dependence of the synergistic effect by co-treatment with bispecific antibody [1]: generally dose-dependent for the c-Src inhibitor

Cc1nc(Nc2ncc(C(=O)Nc3c(C)cccc3Cl)s2)cc(N2CCN(CCO)CC2)n1 [dasatinib, N-(2-chloro-6-methylphenyl)-2-[[6-[4-(2-hydroxyethyl)-1-piperazinyl]-2-methyl-4-pyrimidinyl]amino]-5-thiazole carboxamide monohydrate, reference compound]
cell proliferation, co-treatment with ME22S compared to c-Src inhibitor alone ([2]; 72 hours, FIG. 14, FIG. 15): significantly synergistic therapeutic effect | cell proliferation, co-treatment with ME22S compared to c-Src inhibitor alone ([3]; 72 hours, FIG. 6, FIG. 7): more synergistic therapeutic effect

CN1CCN(CCOc2cc(OC3CCOCC3)c3c(Nc4c(Cl)ccc5c4OCO5)ncnc3c2)CC1 [saracatinib, 4-Quinazolinamine, N-(5-Chloro-1,3-benzodioxol-4-yl)-7-[2-(4-methyl-1-piperazinyl)ethoxy]-5-[(tetrahydro-2H-pyran-4-yl)oxy]-4-quinazolinamine]
dose dependence of the synergistic effect by co-treatment with ME22S ([2]; c-Src inhibitor concentration varied, ME22S 5 μg/ml, FIG. 14, FIG. 15): generally dose-dependent for the c-Src inhibitor | cell proliferation, co-treatment with ME22S compared to c-Src inhibitor alone ([2]; 72 hours, FIG. 14, FIG. 15): significantly synergistic therapeutic effect | cell proliferation, co-treatment with bispecific antibody compared to c-Src inhibitor alone [1]: significantly synergistic therapeutic effect | dose dependence of the synergistic effect by co-treatment with bispecific antibody [1]: generally dose-dependent for the c-Src inhibitor | cell proliferation, co-treatment with ME22S compared to c-Src inhibitor alone ([3]; 72 hours, FIG. 6, FIG. 7): more synergistic therapeutic effect | dose dependence of the synergistic effect by co-treatment with ME22S ([3]; c-Src inhibitor concentration varied, ME22S fixed at 5 μg/ml, FIG. 6, FIG. 7): generally dose-dependent for the c-Src inhibitor

B1: ME-19: bispecific anti-c-Met/anti-EGFR antibody: anti-EGFR DARPin fused to C-terminus of L3-1Y heavy chain through (G4S)2 linker (antibody)
heavy: EVQLVESGGGLVQPGGSLRLSCAASGFTFTDYYMSWVRQAPGKGLEWLGFIRNKANGYTTEYSASVKGRFTISRDNSKNTLYLQMNSLRAEDTAVYYCARDNWFAYWGQGTLVTVSSASTKGPSVFPLAPCSRSTSESTAALGCLVKDYFPEPVTVSWNSGALTSGVHTFPAVLQSSGLYSLSSVVTVPSSNFGTQTYTCNVDHKPSNTKVDKTVERKCCVECPPCPAPPVAGPSVFLFPPKPKDTLMISRTPEVTCVVVDVSHEDPEVQFNWYVDGVEVHNAKTKPREEQFNSTFRVVSVLTVVHQDWLNGKEYKCKVSNKGLPAPIEKTISKTKGQPREPQVYTLPPSREEMTKNQVSLTCLVKGFYPSDIAVEWESNGQPENNYKTTPPMLDSDGSFFLYSKLTVDKSRWQQGNVFSCSVMHEALHNHYTQKSLSLSPGKGGGGSGGGGSDLGKKLLEAARAGQDDEVRILMANGADVNADDTWGWTPLHLAAYQGHLEIVEVLLKNGADVNAYDYIGWTPLHLAADGHLEIVEVLLKNGADVNASDYIGDTPLHLAAHNGHLEIVEVLLKHGADVNAQDKFGKTAFDISIDNGNEDLAEILQ
light: DIQMTQSPSSLSASVGDRVTITCKSSQSLLASGNQNNYLAWYQQKPGKAPKMLIIWASTRVSGVPSRFSGSGSGTDFTLTISSLQPEDFATYYCQQSYSRPYTFGQGTKVEIKRTVAAPSVFIFPPSDEQLKSGTASVVCLLNNFYPREAKVQWKVDNALQSGNSQESVTEQDSKDSTYSLSSTLTLSKADYEKHKVYACEVTHQGLSSPVTKSFNRGEC
cell proliferation, co-treatment with dasatinib compared to bispecific antibody alone ([4]; ME-19 10, 1, 0.1, 0.01 μg/ml or ME22S 1, 0.1, 0.01 μg/ml + 30 nM dasatinib, 72 hours): more synergistic therapeutic effect | dose dependence of the synergistic effect by co-treatment with dasatinib ([4]; antibody concentration varied, dasatinib fixed at 30 nM): dose-dependent for the antibody | cell proliferation, co-treatment with c-Src inhibitor compared to either alone ([5]; ME19 0.01, 0.1, 1 or 10 μg/ml + dasatinib 30 nM, 72 hours, FIG. 10): more considerable inhibition effect on the cell proliferation | dose dependence of the inhibition effect on cell proliferation ([5]; ME19 concentration varied, dasatinib 30 nM, FIG. 10): generally dose-dependent for the bispecific anti-c-Met/anti-EGFR antibody | cell proliferation, bispecific antibody + dasatinib compared to co-treatment of dasatinib, L3-1Y and erbitux ([2]; 5 μg/ml ME19 + 5 nM dasatinib, 72 hours, FIG. 13): considerable inhibition effect on cancer cell proliferation | cell proliferation, co-treatment with dasatinib compared to each of the drugs ([2]; 5 μg/ml ME19 + 5 nM dasatinib, HGF and EGF 100 ng/ml, 72 hours, FIG. 13): more considerable cell proliferation inhibition effect | cell proliferation, bispecific antibody + dasatinib compared to co-treatment of dasatinib, L3-1Y and erbitux ([3]; 5 μg/ml antibody + 30 nM dasatinib, 72 hours): considerable inhibition effect on cancer cell proliferation | cell proliferation, combination with dasatinib compared to the drugs alone ([3]; 5 μg/ml antibody + 30 nM dasatinib, HGF and EGF 100 ng/ml, 72 hours, FIG. 2, FIG. 3): considerable inhibitory effect on the cell proliferation

B2: L3-1Y: anti-c-Met antibody: huAbF46-H4-A1 variable regions, human IgG2 hinge and constant region, human kappa light chain (antibody)
heavy: EVQLVESGGGLVQPGGSLRLSCAASGFTFTDYYMSWVRQAPGKGLEWLGFIRNKANGYTTEYSASVKGRFTISRDNSKNTLYLQMNSLRAEDTAVYYCARDNWFAYWGQGTLVTVSSASTKGPSVFPLAPCSRSTSESTAALGCLVKDYFPEPVTVSWNSGALTSGVHTFPAVLQSSGLYSLSSVVTVPSSNFGTQTYTCNVDHKPSNTKVDKTVERKCCVECPPCPAPPVAGPSVFLFPPKPKDTLMISRTPEVTCVVVDVSHEDPEVQFNWYVDGVEVHNAKTKPREEQFNSTFRVVSVLTVVHQDWLNGKEYKCKVSNKGLPAPIEKTISKTKGQPREPQVYTLPPSREEMTKNQVSLTCLVKGFYPSDIAVEWESNGQPENNYKTTPPMLDSDGSFFLYSKLTVDKSRWQQGNVFSCSVMHEALHNHYTQKSLSLSPGK
light: B1 light
cell proliferation, L3-1Y in combination with erbitux ([5]; 5 μg/ml L3-1Y + 5 μg/ml erbitux, 72 hours): increased cell proliferation | cell proliferation, antibody alone [5, 6]: increased cell proliferation | cell proliferation, L3-1Y in combination with erbitux ([3]; 5 μg/ml L3-1Y + 5 μg/ml erbitux, HGF and EGF 100 ng/ml, 72 hours): increased cell proliferation | cell proliferation, antibody alone [3, 6]: increased cell proliferation
